Like-named read-outs stand apart in the source and are kept apart here.

The nature of experiment [1]: Example 4: dose response of FKBP constructs 160-255, Ec50, Ec90 and fold change (raw and normalized to mCherry). In kind it is cell-based. Conditions: for FC (fold change): fold change during initial analysis. The method, then: Additional experiments were performed for constructs FKBP-160-292.
The test system of a further experiment is Jurkat cells. Kind of experiment: Tacrolimus dose response of FKBP13-AcGFP-mCherry constructs stably transduced into Jurkat cells, GFP MFI by flow cytometry. In kind it is cell-based. Set-up: Basal: unit not given here. Conditions: for Fold Change: Jurkat cells, Table 13. The method in brief:
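GFP geometric MFI was read by flow cytometry in mCherry+ cells and curve-fitted against tacrolimus dose. Cells were Jurkat E6-1, lentivirus-transduced with FKBP13-AcGFP-mCherry fusion constructs until 10-25% mCherry-positive on day 5 post-transduction.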
A general note: In flow cytometry, cells or beads pass a laser one at a time.

Where [2] appears, read: FKBP constructs 160-255, not normalized, read-out: EC90.
The mark [3] stands for this setting: normalized to mCherry, read-out: EC90 (Norm).

B1: FKBP-162 (protein)
chain: HCPIKSRKGDVLHAHYTGKLEDGTEFDSSLPRNQPFVFSLGTGERIKGWDQGLLGMCEGEKRKLVIPSELGYGERGWPPKIPGGATLVFEVELLKIE
modifications: C-terminal R deleted; Description of sequence: Construct Name: FKBP-162; Mutation(s): Q72R Q84E A117W DRD M54A del c-term R V85R
With B1, the figures for the EC90 in experiment [1] (setting [2]) and in experiment [1] (setting [3]) were 1800 nM and 1870 nM, respectively. Besides, in experiment [1], the “FC (fold change)” value came out at 46.6.

B2: FKBP-203: FKBP13 DRD-AcGFP construct of Table 10 (protein)
chain: HCPIKSRKGDVLHAHYTGKLEDGTEFDSSLPRNQLFVFSLGTGERIKGWDQGLLGMCEGEKRKLVIPSELGYGERGWPPKIPGGATLVFEVELLKIER
modifications: Description of sequence: Construct Name: FKBP-203; Mutation(s): Q72R Q84E A117W V85R DRD M54A P75L
B2: the 90% effect concentration (EC90) in experiment [1] (setting [2]) was 657 nM; in experiment [1] (setting [3]), 747 nM. Besides, the “FC (fold change)” value in experiment [1] came out at 66.0.

B3: FKBP-206 (protein)
chain: HCPIKSRKGDVLHAHYTGKLEDGTEFDSSLPRNQPFVFSLGTGERIKGWDQGLLGMCEGEKRKLVIPSELGYGERGWPPKIPGGATLVFEVELLYIER
modifications: Description of sequence: Construct Name: FKBP-206; Mutation(s): Q72R Q84E A117W V85R DRD M54A K135Y
Turning to B3, the 90% effect concentration (EC90) in experiment [1] (setting [2]) is 573 nM; in experiment [1] (setting [3]) it was 550 nM. Moreover, the “FC (fold change)” value in experiment [1] was 50.1.

B4: FKBP-257: FKBP13 DRD-AcGFP construct of Table 10 (protein)
chain: HCPIKSRKGDVLHMHYTGKLEDGTEFDSSLPRNQPFVFSLGTGERIKGWDQGLLGMCEGEKRKLVIPSELGYGERGWPPKIPGGATLVFEVELLKIFR
modifications: Description of sequence: Construct Name: FKBP-257; Mutation(s): Q72R Q84E A117W V85R DRD E137F
As to B4, in the experiment on Jurkat cells (FIG. 41), the Basal was determined as 98, the FC is reported as 59 and the Peak was determined as 5501. Besides, in the experiment on Jurkat cells (FIG. 43, BR1 (Biorep 1)), the Basal was 107, the FC was found to be 59.79 and the “At 10 uM” value is 6397. Moreover, in the experiment on Jurkat cells (FIG. 43, BR2 (Biorep 2)), the Basal is 118, the FC is on record as 50.39 and the “At 10 uM” value is on record as 5946. Also, in the experiment with Jurkat cells (tacrolimus, FIGS. 29 and 30), the FC amounted to 65. Moreover, in the experiment on Jurkat cells (tacrolimus), the “Fold Change” value is given as 65.

B5: FKBP-209: FKBP13 DRD-AcGFP construct of Table 10 (protein)
chain: HCPIKSRKGDVLHAHYTGKLEDGTEFDSSLPRNQPFVFSLGTGERIKGWDQGLLGMCEGEWRKLVIPSELGYGERGWPPKIPGGATLVFEVELLKIER
modifications: Description of sequence: Construct Name: FKBP-209; Mutation(s): Q72R Q84E A117W V85R DRD M54A K101W
Regarding B5, the EC90 in experiment [1] (setting [2]) is 682 nM; in experiment [1] (setting [3]) it was 777 nM. Moreover, the “FC (fold change)” value in experiment [1] came out at 56.0.

B6: FKBP-205 (protein)
chain: HCPIKSRKGDVLHAHYTGKLEDGTEFDSSLPRNQPFVFSLGTGERIKGWDQGLLGMCEGEKRKVVIPSELGYGERGWPPKIPGGATLVFEVELLKIER
modifications: Description of sequence: Construct Name: FKBP-205; Mutation(s): Q72R Q84E A117W V85R DRD M54A L104V
Regarding B6, the EC90 in experiment [1] (setting [2]) turned out to be 183 nM; in experiment [1] (setting [3]), 184 nM. For the same molecule, the “FC (fold change)” value in experiment [1] was 30.1.

B7: FKBP-211 (protein)
chain: HCPIKSRKGDVLHAHYTGKLESGTEFDSSLPRNQPFVFSLGTGERIKGWDQGLLGMCEGEKRKLVIPSELGYGERGWPPKIPGGATLVFEVELLKIER
modifications: Description of sequence: Construct Name: FKBP-211; Mutation(s): Q72R Q84E A117W V85R DRD M54A D62S
Turning to B7, the values for the EC90 in experiment [1] (setting [2]) and in experiment [1] (setting [3]) were 452 nM and 481 nM, respectively. The “FC (fold change)” value in experiment [1] turned out to be 35.7.

B8: FKBP-256: FKBP13 DRD-AcGFP construct of Table 10 (protein)
chain: HCPIKSRKGDVLHMHYTGKLEDGTEFDSSLPRNQPFVFSLGTGERIKGWDQGLLGMCEGEKRKLVIPSELGYGERGWPPKIPGGATLVFEVELLKIMR
modifications: Description of sequence: Construct Name: FKBP-256; Mutation(s): Q72R Q84E A117W V85R DRD E137M
As for B8, the Basal is listed as 111 with Jurkat cells (FIG. 41); 110 in the experiment on Jurkat cells (FIG. 43, BR1 (Biorep 1)); 125 in the experiment on Jurkat cells (FIG. 43, BR2 (Biorep 2)). Moreover, the FC in the experiment on Jurkat cells (FIG. 41) is reported as 65; with Jurkat cells (FIG. 43, BR1 (Biorep 1)), 71.46; with Jurkat cells (FIG. 43, BR2 (Biorep 2)), 59.04; with Jurkat cells (tacrolimus, FIGS. 29 and 30), 78. The Peak in the experiment with Jurkat cells (FIG. 41) was determined as 6851. The “At 10 uM” value stood at 7861 with Jurkat cells (FIG. 43, BR1 (Biorep 1)) and 7380 in the experiment with Jurkat cells (FIG. 43, BR2 (Biorep 2)). Further, the “Fold Change” value in the experiment on Jurkat cells (tacrolimus) worked out at 78.

B9: FKBP-212 (protein)
chain: HCPIKSRKGDVLLAHYTGKLEDGTEFDSSLPRNQPFVFSLGTGERIKGWDQGLLGMCEGEKRKLVIPSELGYGERGWPPKIPGGATLVFEVELLKIER
modifications: Description of sequence: Construct Name: FKBP-212; Mutation(s): Q72R Q84E A117W V85R DRD M54A H53L
As to B9, the concentration for an effect of 90% (EC90) in experiment [1] (setting [2]) worked out at 299 nM; in experiment [1] (setting [3]) it was 317 nM. Besides, the “FC (fold change)” value in experiment [1] is recorded as 40.2.

B10: FKBP-204 (protein)
chain: HCPIKSRKGDVLHAHYTGKLEDGTEFDSSLPRNQPFVFSLGTGERIKGWAQGLLGMCEGEKRKLVIPSELGYGERGWPPKIPGGATLVFEVELLKIER
modifications: Description of sequence: Construct Name: FKBP-204; Mutation(s): Q72R Q84E A117W V85R DRD M54A D90A
In the case of B10, the concentration for an effect of 90% (EC90) is 15200 nM in experiment [1] (setting [2]) and 15500 nM in experiment [1] (setting [3]). Moreover, the “FC (fold change)” value in experiment [1] is reported as 37.9.

B11: FKBP-207 (protein)
chain: HCPIKSRKGDVLHAHYTGKLEDGTEFDSSLPRNQPFVFSLGTGERIKGWDQGLLGMCEGEKRKLVIPSELGYGERGWPPKIPGGATLVFEVELLKVER
modifications: Description of sequence: Construct Name: FKBP-207; Mutation(s): Q72R Q84E A117W V85R DRD M54A I136V
As to B11, the 90% effect concentration (EC90) in experiment [1] (setting [2]) is 311 nM; in experiment [1] (setting [3]), 302 nM. The “FC (fold change)” value in experiment [1] came to 35.4.

B12: FKBP-210 (protein)
chain: HCPIKSRKGDVLHAHYTGKLEDGTEFDSSLPRNQPFVFSLGTGERIKGWDQGLLGMCLGEKRKLVIPSELGYGERGWPPKIPGGATLVFEVELLKIER
modifications: Description of sequence: Construct Name: FKBP-210; Mutation(s): Q72R Q84E A117W V85R DRD M54A E98L
Regarding B12, the EC90 came to 191 nM in experiment [1] (setting [2]) and 208 nM in experiment [1] (setting [3]). For the same molecule, the “FC (fold change)” value in experiment [1] was 32.8.

B13: FKBP-208 (protein)
chain: HCPIKSRKGDVLHAHYTGKLEDGTEFDSSLPRNQPFVFSLGTGERIKGWDQGLLGMCEGEKRKLVIPSELGYGERGWPPKIPGGATLVFRVELLKIER
modifications: Description of sequence: Construct Name: FKBP-208; Mutation(s): Q72R Q84E A117W V85R DRD M54A E130R
For B13, the EC90 in experiment [1] (setting [2]) is 4220 nM; in experiment [1] (setting [3]), 4120 nM. In experiment [1], the “FC (fold change)” value came to 87.2.

B14: FKBP-259: FKBP13 DRD-AcGFP construct of Table 10 (protein)
chain: HCPIKSRKGDVLHMHYTGKLEDGTEFDSSLPRNQPFVFSLGTGERIKGWDQGLLGMCEGEKRKLVIPSELGYGERGWPPKIPGGATLVFKVELLKIER
modifications: Description of sequence: Construct Name: FKBP-259; Mutation(s): Q72R Q84E A117W V85R DRD E130K
With B14, in the experiment on Jurkat cells (FIG. 40), the Basal worked out at 72.3, the FC is reported as 90 and the Peak is on record as 6232. Besides, in the experiment on Jurkat cells (FIG. 47, BR1 (Biorep 1)), the Basal was determined as 70.7, the FC is listed as 95.97 and the “At 10 uM” value is on record as 6785. Also, in the experiment with Jurkat cells (FIG. 47, BR2 (Biorep 2)), the Basal is 77.3, the FC is reported as 84.76 and the “At 10 uM” value is recorded as 6552. Also, in the experiment with Jurkat cells (tacrolimus, FIGS. 29 and 30), the FC is 103. Moreover, in the experiment on Jurkat cells (tacrolimus), the “Fold Change” value was found to be 103.

B15: FKBP-213 (protein)
chain: HCRIKSRKGDVLHAHYTGKLEDGTEFDSSLPRNQPFVFSLGTGGVIKGWDQGLLGMCEGEKRKLVIPSELGYGERGWPPKIPGGATLVFEVELLKIER
modifications: Description of sequence: Construct Name: FKBP-213; Mutation(s): Q72R Q84G A117W DRD P43R M54A
Turning to B15, the EC90 in experiment [1] (setting [2]) was 47.4 nM; in experiment [1] (setting [3]), 47 nM. Besides, in experiment [1], the “FC (fold change)” value was determined as 28.8.

Broadly, the EC90 is the concentration needed for an effect of 90%.

These data come from patent US20250186614A1, “COMPACT DRUG RESPONSIVE DOMAINS FOR REGULATION OF FUNCTION/ABUNDANCE AND DELIVERY OF POLYPEPTIDE PAYLOADS” (OBSIDIAN THERAPEUTICS, INC., priority 2022, published 2025).
